B1: Major outer membrane lipoprotein Lpp, P69776 (parent)
chain: MKATKLVLGAVILGSTLLAGCSSNAKIDQLSSDVQTLNAKVDQLSNDVNAMRSDVQAAKDDAARANQRLDNMATKYRK

Variants of: B1
Details: Escherichia coli (strain K12), pH 7, CD, structure 1EQ7, whole UniProt chain shown; for ddG of mutation (higher = less stable) / unfolding free energy: 4 °C, GdnHCl, PBS; for Tm / change of melting temperature, mutant - wild type (higher = more stable): Thermal, Sodium phosphate 50mM, NaCl 150mM

Variant	ddG of mutation (higher = less stable) [kcal/mol]	unfolding free energy [kcal/mol]	Tm [°C]	change of melting temperature, mutant - wild type (higher = more stable) [°C]
MKATKLVLGAVILGSTLLAGCSSNAKIDQLSSDVQTLNAKVDQLSNDVNAMRSDVQAAKDDAARANQRLDNMATKARK	1.1	19.4	63	-4
MKATKLVLGAVILGSTLLAGCSANAKIDQLSSDVQTLNAKVDQLSNDVNAMRSDVQAAKDDAARANQRLDNMATKYRK	0.8	19.7	64	-3

Reference: FireProtDB (doi:10.1006/jmbi.2000.3776)
